Measured values published in publication PMC9482650, “Quantitative fragmentomics allow affinity mapping of interactomes” (Nature Communications, 2022).

T1: APBA1_2, Q02410
T1 sequence (Q02410 742-832, limits assumed, looked up): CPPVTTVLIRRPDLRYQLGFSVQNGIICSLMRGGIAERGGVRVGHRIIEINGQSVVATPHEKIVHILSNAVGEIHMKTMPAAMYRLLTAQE

T2: CARD11, Q9BXL7
T2 sequence (Q9BXL7 662-765, limits assumed, looked up): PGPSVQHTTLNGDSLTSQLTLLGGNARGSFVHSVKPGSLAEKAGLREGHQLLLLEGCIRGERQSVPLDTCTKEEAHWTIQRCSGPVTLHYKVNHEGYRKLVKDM

T3: LIN7A, O14910
T3 sequence (O14910 103-200, limits assumed, looked up): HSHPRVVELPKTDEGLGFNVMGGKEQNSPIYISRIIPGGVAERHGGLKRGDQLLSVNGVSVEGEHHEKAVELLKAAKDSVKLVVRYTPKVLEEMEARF

T4: LNX2_3, Q8N448
T4 sequence (Q8N448 463-564, limits assumed, looked up): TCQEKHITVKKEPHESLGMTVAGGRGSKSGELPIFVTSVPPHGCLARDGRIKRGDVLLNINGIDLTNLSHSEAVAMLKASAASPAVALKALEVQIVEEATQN

T5: MPDZ_12, O75970
T5 sequence (O75970 1857-1958, limits assumed, looked up): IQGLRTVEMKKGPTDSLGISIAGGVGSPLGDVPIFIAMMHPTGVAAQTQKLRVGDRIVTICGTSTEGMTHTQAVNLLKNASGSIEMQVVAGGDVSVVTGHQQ

T6: NHERF3_4, Q5T2W1
T6 sequence (Q5T2W1 373-468, limits assumed, looked up): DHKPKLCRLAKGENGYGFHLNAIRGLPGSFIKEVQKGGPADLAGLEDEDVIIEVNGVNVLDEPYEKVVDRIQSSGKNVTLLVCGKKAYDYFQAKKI

T7: PDZD2_2, O15018
T7 sequence (O15018 329-429, limits assumed, looked up): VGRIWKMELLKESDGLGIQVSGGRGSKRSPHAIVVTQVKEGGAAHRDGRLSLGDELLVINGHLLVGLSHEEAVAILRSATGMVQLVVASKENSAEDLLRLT

T8: RAPGEF6, Q8TEU7
T8 sequence (Q8TEU7 525-625, limits assumed, looked up): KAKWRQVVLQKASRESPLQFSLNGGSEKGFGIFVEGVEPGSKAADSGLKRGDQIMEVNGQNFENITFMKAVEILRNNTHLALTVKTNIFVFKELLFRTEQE

T9: SHANK1, Q9Y566
T9 sequence (Q9Y566 658-767, limits assumed, looked up): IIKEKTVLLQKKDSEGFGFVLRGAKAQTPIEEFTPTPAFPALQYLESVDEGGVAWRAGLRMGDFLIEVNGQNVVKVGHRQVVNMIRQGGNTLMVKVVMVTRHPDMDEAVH


Key:
Assay in all cases: holdup assay
Design in all cases: key: below the threshold = too weak to quantify, mostly under pKd 3.1 to 4
Conditions in all cases: plain residues with an end cap or a label only (N-terminal biotin on a linker: ado-ado)
APBA1_2, Q02410 = biological target: T1, APBA1_2, Q02410
CARD11, Q9BXL7 = biological target: T2, CARD11, Q9BXL7
DLG4_3, P78352 = biological target: DLG4_3, P78352
Chain of DLG4_3, P78352 (P78352 306-403): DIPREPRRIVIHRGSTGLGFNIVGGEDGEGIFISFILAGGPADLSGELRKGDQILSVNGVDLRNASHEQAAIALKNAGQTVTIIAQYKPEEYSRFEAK

DLG5_1, Q8TDM6 = biological target: DLG5_1, Q8TDM6
Chain of DLG5_1, Q8TDM6 (Q8TDM6 617-713): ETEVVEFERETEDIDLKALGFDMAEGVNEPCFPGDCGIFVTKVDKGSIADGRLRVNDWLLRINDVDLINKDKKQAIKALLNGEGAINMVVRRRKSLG

GRASP, Q7Z6J2 = biological target: GRASP, Q7Z6J2
Chain of GRASP, Q7Z6J2 (Q7Z6J2 96-193): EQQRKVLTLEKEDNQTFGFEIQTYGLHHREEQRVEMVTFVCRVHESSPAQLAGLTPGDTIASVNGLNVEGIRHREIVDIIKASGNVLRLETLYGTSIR

GRIP2_4, Q9C0E4 = biological target: GRIP2_4, Q9C0E4
Chain of GRIP2_4, Q9C0E4 (Q9C0E4 446-548): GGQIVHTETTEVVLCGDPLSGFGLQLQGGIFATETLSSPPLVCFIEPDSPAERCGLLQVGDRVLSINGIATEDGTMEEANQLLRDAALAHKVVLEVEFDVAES

GRIP2_6, Q9C0E4 = biological target: GRIP2_6, Q9C0E4
Chain of GRIP2_6, Q9C0E4 (Q9C0E4 648-740): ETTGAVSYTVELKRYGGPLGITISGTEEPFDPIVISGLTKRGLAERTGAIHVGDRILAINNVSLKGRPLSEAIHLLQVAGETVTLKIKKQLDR

HTRA2, O43464 = biological target: HTRA2, O43464
Chain of HTRA2, O43464 (O43464 355-458): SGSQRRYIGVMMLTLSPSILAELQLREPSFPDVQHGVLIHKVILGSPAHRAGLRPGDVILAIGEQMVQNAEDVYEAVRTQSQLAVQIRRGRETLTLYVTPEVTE

IL16_4, Q14005 = biological target: IL16_4, Q14005
Chain of IL16_4, Q14005 (Q14005 1229-1329): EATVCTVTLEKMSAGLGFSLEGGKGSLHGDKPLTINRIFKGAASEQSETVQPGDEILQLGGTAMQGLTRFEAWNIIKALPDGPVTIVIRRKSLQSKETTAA

Inadl_3, Q8NI35 = biological target: Inadl_3, Q8NI35
Chain of Inadl_3, Q8NI35 (Q8NI35 359-469): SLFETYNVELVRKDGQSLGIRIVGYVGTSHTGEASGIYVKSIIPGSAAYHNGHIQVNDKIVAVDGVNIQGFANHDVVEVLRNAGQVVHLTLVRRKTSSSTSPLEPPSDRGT

Inadl_8, Q8NI35 = biological target: Inadl_8, Q8NI35
Chain of Inadl_8, Q8NI35 (Q8NI35 1425-1530): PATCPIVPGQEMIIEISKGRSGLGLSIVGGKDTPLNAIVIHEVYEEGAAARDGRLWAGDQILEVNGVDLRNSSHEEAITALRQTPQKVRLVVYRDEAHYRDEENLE

Inadl_9, Q8NI35 = biological target: Inadl_9, Q8NI35
Chain of Inadl_9, Q8NI35 (Q8NI35 1530-1615): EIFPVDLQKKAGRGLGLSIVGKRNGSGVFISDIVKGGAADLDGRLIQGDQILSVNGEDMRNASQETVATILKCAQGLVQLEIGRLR

LIMK2, P53671 = biological target: LIMK2, P53671
Chain of LIMK2, P53671 (P53671 143-248): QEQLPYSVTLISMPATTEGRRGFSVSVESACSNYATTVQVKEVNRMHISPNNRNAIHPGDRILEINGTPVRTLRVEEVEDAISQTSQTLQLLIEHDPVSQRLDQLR

LIN7A, O14910 = biological target: T3, LIN7A, O14910
LNX1_3, Q8TBB1 = biological target: LNX1_3, Q8TBB1
Chain of LNX1_3, Q8TBB1 (Q8TBB1 500-596): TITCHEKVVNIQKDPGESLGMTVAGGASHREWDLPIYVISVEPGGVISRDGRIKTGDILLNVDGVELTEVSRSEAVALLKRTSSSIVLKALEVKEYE

LNX2_3, Q8N448 = biological target: T4, LNX2_3, Q8N448
MAGI1_1, Q96QZ7 = biological target: MAGI1_1, Q96QZ7
Chain of MAGI1_1, Q96QZ7 (Q96QZ7 1-106): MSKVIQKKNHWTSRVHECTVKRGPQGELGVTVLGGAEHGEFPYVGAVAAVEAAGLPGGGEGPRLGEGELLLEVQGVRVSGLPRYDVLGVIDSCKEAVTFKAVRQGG

MAGI2_2, Q86UL8 = biological target: MAGI2_2, Q86UL8
Chain of MAGI2_2, Q86UL8 (Q86UL8 410-522): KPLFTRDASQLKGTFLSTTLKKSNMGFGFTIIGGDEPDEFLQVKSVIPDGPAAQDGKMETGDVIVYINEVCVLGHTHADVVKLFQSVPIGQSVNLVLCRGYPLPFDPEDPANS

MPDZ_12, O75970 = biological target: T5, MPDZ_12, O75970
NHERF2_2, Q15599 = biological target: NHERF2_2, Q15599
Chain of NHERF2_2, Q15599 (Q15599 142-238): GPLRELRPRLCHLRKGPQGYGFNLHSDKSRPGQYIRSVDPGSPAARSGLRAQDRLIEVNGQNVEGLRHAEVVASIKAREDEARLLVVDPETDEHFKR

NHERF3_4, Q5T2W1 = biological target: T6, NHERF3_4, Q5T2W1
NHERF4_1, Q86UT5-2 = biological target: NHERF4_1, Q86UT5-2
Chain of NHERF4_1, Q86UT5-2 (Q86UT5 other isoform, or with tags, fused parts or gaps): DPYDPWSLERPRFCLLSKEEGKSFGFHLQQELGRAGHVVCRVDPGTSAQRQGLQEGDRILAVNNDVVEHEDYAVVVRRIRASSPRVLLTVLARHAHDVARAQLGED

PARD3_3, Q8TEW0 = biological target: PARD3_3, Q8TEW0
Chain of PARD3_3, Q8TEW0 (Q8TEW0 582-685): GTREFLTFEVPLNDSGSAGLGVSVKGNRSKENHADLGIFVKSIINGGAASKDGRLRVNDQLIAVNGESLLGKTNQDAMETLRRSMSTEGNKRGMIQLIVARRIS

PDZD2_2, O15018 = biological target: T7, PDZD2_2, O15018
RAPGEF6, Q8TEU7 = biological target: T8, RAPGEF6, Q8TEU7
SCRIB_1, Q14160 = biological target: SCRIB_1, Q14160
Chain of SCRIB_1, Q14160 (Q14160 718-814): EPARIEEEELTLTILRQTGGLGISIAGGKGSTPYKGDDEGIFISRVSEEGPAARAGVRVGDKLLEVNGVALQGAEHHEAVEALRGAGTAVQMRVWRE

SHANK1, Q9Y566 = biological target: T9, SHANK1, Q9Y566
SNX27, Q96L92 = biological target: SNX27, Q96L92
TJP2_1, Q9UDY2 = biological target: TJP2_1, Q9UDY2
Chain of TJP2_1, Q9UDY2 (Q9UDY2 24-128): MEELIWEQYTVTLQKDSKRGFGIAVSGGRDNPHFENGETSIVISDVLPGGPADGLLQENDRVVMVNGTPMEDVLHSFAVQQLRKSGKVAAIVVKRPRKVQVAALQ

| Binder | pKd (APBA1_2, Q02410) | pKd (CARD11, Q9BXL7) | pKd (DLG4_3, P78352) | pKd (DLG5_1, Q8TDM6) | pKd (GRASP, Q7Z6J2) | pKd (GRIP2_4, Q9C0E4) | pKd (GRIP2_6, Q9C0E4) | pKd (HTRA2, O43464) | pKd (IL16_4, Q14005) | pKd (Inadl_3, Q8NI35) | pKd (Inadl_8, Q8NI35) | pKd (Inadl_9, Q8NI35) | pKd (LIMK2, P53671) | pKd (LIN7A, O14910) | pKd (LNX1_3, Q8TBB1) | pKd (LNX2_3, Q8N448) | pKd (MAGI1_1, Q96QZ7) | pKd (MAGI2_2, Q86UL8) | pKd (MPDZ_12, O75970) | pKd (NHERF2_2, Q15599) | further results |
| --- | --- | --- | --- | --- | --- | --- | --- | --- | --- | --- | --- | --- | --- | --- | --- | --- | --- | --- | --- | --- | --- |
| REKKFFCTIL [GNG4, P50150] | 4.71 | 3.54 | 4.17 | below the threshold | 5.1 | below the threshold | 4.57 | 4.49 | 3.49 | 4.67 | 4.52 | below the threshold | below the threshold | 3.6 | 3.95 | below the threshold | below the threshold | 4.63 | 3.62 | 4.52 | pKd (NHERF3_4, Q5T2W1): 5.36; pKd (NHERF4_1, Q86UT5-2): 4.56; pKd (PARD3_3, Q8TEW0): 4.27; pKd (PDZD2_2, O15018): 4.06; pKd (RAPGEF6, Q8TEU7): below the threshold; pKd (SCRIB_1, Q14160): 5.33; pKd (SHANK1, Q9Y566): 5.21; pKd (SNX27, Q96L92): 5.13; pKd (TJP2_1, Q9UDY2): 4.93 |
| TGPWKNETTV [ADGRA1, Q86SQ6] | below the threshold | below the threshold | 4.61 | below the threshold | below the threshold | below the threshold | below the threshold | below the threshold | below the threshold | below the threshold | below the threshold | below the threshold | below the threshold | 3.86 | below the threshold | below the threshold | below the threshold | 5.17 | below the threshold | below the threshold | pKd (NHERF3_4, Q5T2W1): below the threshold; pKd (NHERF4_1, Q86UT5-2): below the threshold; pKd (PARD3_3, Q8TEW0): below the threshold; pKd (PDZD2_2, O15018): 4.02; pKd (RAPGEF6, Q8TEU7): below the threshold; pKd (SCRIB_1, Q14160): 4.34; pKd (SHANK1, Q9Y566): below the threshold; pKd (SNX27, Q96L92): 5.43; pKd (TJP2_1, Q9UDY2): below the threshold |
| IPGKEFDTPL [PLCB1, Q9NQ66] | below the threshold | below the threshold | below the threshold | below the threshold | below the threshold | below the threshold | below the threshold | below the threshold | below the threshold | below the threshold | below the threshold | below the threshold | below the threshold | below the threshold | below the threshold | below the threshold | below the threshold | below the threshold | below the threshold | 5.1 | pKd (NHERF3_4, Q5T2W1): 4.31; pKd (NHERF4_1, Q86UT5-2): 3.56; pKd (PARD3_3, Q8TEW0): below the threshold; pKd (PDZD2_2, O15018): 3.62; pKd (RAPGEF6, Q8TEU7): below the threshold; pKd (SCRIB_1, Q14160): 3.93; pKd (SHANK1, Q9Y566): 3.96; pKd (SNX27, Q96L92): 5.17; pKd (TJP2_1, Q9UDY2): below the threshold |

Further lines, with some results ahead:

| pKd (APBA1_2, Q02410) | pKd (CARD11, Q9BXL7) | pKd (DLG4_3, P78352) | pKd (DLG5_1, Q8TDM6) | pKd (GRASP, Q7Z6J2) | pKd (GRIP2_4, Q9C0E4) | pKd (GRIP2_6, Q9C0E4) | pKd (HTRA2, O43464) | pKd (IL16_4, Q14005) | pKd (Inadl_3, Q8NI35) | pKd (Inadl_8, Q8NI35) | pKd (Inadl_9, Q8NI35) | pKd (LIMK2, P53671) | pKd (LIN7A, O14910) | pKd (LNX1_3, Q8TBB1) | pKd (LNX2_3, Q8N448) | pKd (MAGI1_1, Q96QZ7) | pKd (MAGI2_2, Q86UL8) | pKd (MPDZ_12, O75970) | pKd (NHERF2_2, Q15599) | Binder | further results |
| --- | --- | --- | --- | --- | --- | --- | --- | --- | --- | --- | --- | --- | --- | --- | --- | --- | --- | --- | --- | --- | --- |
| below the threshold | below the threshold | below the threshold | below the threshold | below the threshold | below the threshold | below the threshold | below the threshold | below the threshold | below the threshold | below the threshold | below the threshold | below the threshold | below the threshold | below the threshold | below the threshold | below the threshold | below the threshold | below the threshold | below the threshold | DHLGGGGESM [TNRC6A, Q8NDV7] | pKd (NHERF3_4, Q5T2W1): below the threshold; pKd (NHERF4_1, Q86UT5-2): below the threshold; pKd (PARD3_3, Q8TEW0): below the threshold; pKd (PDZD2_2, O15018): below the threshold; pKd (RAPGEF6, Q8TEU7): below the threshold; pKd (SCRIB_1, Q14160): below the threshold; pKd (SHANK1, Q9Y566): below the threshold; pKd (SNX27, Q96L92): below the threshold; pKd (TJP2_1, Q9UDY2): below the threshold |
| below the threshold | below the threshold | below the threshold | below the threshold | 4.12 | below the threshold | below the threshold | below the threshold | below the threshold | below the threshold | 3.66 | below the threshold | below the threshold | below the threshold | below the threshold | below the threshold | below the threshold | below the threshold | below the threshold | below the threshold | ALPLPQSSTC [IGF1R, P08069] | pKd (NHERF3_4, Q5T2W1): below the threshold; pKd (NHERF4_1, Q86UT5-2): 3.88; pKd (PARD3_3, Q8TEW0): below the threshold; pKd (PDZD2_2, O15018): 4.46; pKd (RAPGEF6, Q8TEU7): below the threshold; pKd (SCRIB_1, Q14160): 3.8; pKd (SHANK1, Q9Y566): below the threshold; pKd (SNX27, Q96L92): below the threshold; pKd (TJP2_1, Q9UDY2): below the threshold |
